Source: paper PMC3405102, “Solution Structure of the LIM-Homeodomain Transcription Factor Complex Lhx3/Ldb1 and the Effects of a Pituitary Mutation on Key Lhx3 Interactions” (PLoS ONE, 2012)

Biological target: T1, Lhx3 LIM1+2 as it stands in the tethered complex Ldb1-Lhx3 (mouse, UniProt P50481-1 28-153)
T1 construct: Lhx3 (LIM homeobox protein 3), mouse, both LIM domains, residues 28-153; source: part of the tethered Ldb1-Lhx3 chain
T1 sequence (looked up): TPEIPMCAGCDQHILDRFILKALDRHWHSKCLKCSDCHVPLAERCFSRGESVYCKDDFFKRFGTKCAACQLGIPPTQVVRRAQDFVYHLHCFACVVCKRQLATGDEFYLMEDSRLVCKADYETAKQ
Assay: SAXS; Ldb1-Lhx3 tethered complex at 4.5 mg mL^-1 in 20 mM Na2HPO4, 40 mM NaCl, 1 mM DTT, pH 6.8, 283 K; mass from I(0), Guinier analysis, DAMMIF and BUNCH modelling
Conditions: both partners purified

binding result: binds
B1: Ldb1LID as it stands in the tethered complex Ldb1-Lhx3 (domain or fragment, mouse, UniProt P70662-3 300-339, looked up)
chain: DVMVVGEPTLMGGEFGDEDERLITRLENTQFDAANGIDDE
notes: numbers count on: isoform P70662-3; source: part of the tethered Ldb1-Lhx3 chain
